Laboratory results as given in PMC10764958.

Target: SARS2-NP WT (bacterial) (SARS-CoV-2, UniProt P0DTC9 1-419)
Assay: MST; MST: PBS with 0.05% Tween, room temperature; […]
Conditions: protein: recombinant; tags: 2xStrep (C-term); chain copies: 2

B1: Cy5-RNA (SARS-CoV-2 RNA) (ssRNA)
RNA: CACUCGCUAUGUCGAUAACAACUUCUGUGGCCCUGAUGGCUACCCUCUUGAGUGCAUUAAAGA
binding result: binds
